Measurements: paper PMC3871639

Biological target: T1, Stat5 (mouse liver nuclear extract, identified by WEMSA immunoblot) (mouse) (UniProt P42232)
T1 sequence: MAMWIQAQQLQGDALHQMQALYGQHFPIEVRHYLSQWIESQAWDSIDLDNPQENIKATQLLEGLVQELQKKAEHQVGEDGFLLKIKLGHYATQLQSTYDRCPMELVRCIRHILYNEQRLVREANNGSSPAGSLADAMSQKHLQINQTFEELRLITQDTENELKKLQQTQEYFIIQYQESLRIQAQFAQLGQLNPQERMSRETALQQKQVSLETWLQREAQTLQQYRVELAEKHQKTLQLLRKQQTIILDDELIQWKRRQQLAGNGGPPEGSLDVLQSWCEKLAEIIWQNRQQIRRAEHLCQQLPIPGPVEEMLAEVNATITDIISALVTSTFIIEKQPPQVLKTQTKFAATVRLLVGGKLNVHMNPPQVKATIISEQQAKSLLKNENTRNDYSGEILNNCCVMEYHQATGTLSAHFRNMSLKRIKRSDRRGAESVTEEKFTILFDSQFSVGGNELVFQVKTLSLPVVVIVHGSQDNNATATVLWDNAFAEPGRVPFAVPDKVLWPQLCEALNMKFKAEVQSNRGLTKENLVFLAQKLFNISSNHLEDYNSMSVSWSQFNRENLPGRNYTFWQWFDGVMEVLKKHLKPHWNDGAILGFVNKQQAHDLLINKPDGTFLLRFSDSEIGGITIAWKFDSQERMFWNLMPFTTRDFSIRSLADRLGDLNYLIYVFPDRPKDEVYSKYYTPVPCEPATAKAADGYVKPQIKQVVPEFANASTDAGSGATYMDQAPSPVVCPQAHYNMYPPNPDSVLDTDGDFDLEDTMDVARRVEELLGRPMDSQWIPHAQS
Assay: EMSA + immunoblot of shifted complex (WEMSA)
Details: Li-Cor EMSA buffer kit: 1x binding buffer, poly(dI-dC) 1 ug/uL (in 10 mM Tris, 1 mM EDTA, pH 7.5), 25 mM DTT/2.5% Tween-20, 1% NP-40, 100 mM MgCl2 (as listed …)

“GTAATTCCTAGATTCATGGAAGAG (double strand) [Stat5 element probe of mouse Tmprss6 promoter]” was tested, and the binding signal (% of baseline shift (decreased by 60%)) was 40.
